pKd: −log10 of the molar value. Read-outs that look alike come from different tables or passages of the source.

Assay [1] addresses human FcγRI (CD64) extracellular domain (human) (UniProt P12314). The assay is described as follows: SPR (Biacore), antibody captured on protein A, FcγR ECD as analyte, 25 °C.
Assay [2] concerns the target human FcγRIIA_131H (CD32a) extracellular domain (human) (UniProt P12318). Put plainly: SPR (Biacore), antibody captured on protein A, FcγR ECD as analyte, steady state, 25 °C. A general note: Surface plasmon resonance follows binding to a sensor surface in real time, without labels.
Assay [3] has as its target human FcγRIIIA_158F (CD16a) extracellular domain (human) (UniProt P08637). The assay is described as above.
Assay [4] concerns the target human FcγRIIb (CD32b) extracellular domain (human) (UniProt P31994). The description is as above.
The target in assay [5] is human FcγRIIA_131R (CD32a) extracellular domain (human) (UniProt P12318). The description is as above.
human FcγRIIA_131R (CD32a) extracellular domain (human), sequence (P12318 34-217 H167R): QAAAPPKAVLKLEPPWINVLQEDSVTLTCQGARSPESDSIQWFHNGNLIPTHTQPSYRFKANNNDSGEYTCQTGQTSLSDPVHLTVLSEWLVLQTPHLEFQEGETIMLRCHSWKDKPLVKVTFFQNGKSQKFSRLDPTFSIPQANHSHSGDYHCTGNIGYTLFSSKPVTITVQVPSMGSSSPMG
The target in assay [6] is human FcγRI (CD64) extracellular domain (human) (UniProt P12314). Put plainly: SPR (Biacore), antibody captured on protein A, FcγR ECD as analyte, 25 °C. The source holds these as a separate data set.
human FcγRI (CD64) extracellular domain (human), sequence (P12314 16-292): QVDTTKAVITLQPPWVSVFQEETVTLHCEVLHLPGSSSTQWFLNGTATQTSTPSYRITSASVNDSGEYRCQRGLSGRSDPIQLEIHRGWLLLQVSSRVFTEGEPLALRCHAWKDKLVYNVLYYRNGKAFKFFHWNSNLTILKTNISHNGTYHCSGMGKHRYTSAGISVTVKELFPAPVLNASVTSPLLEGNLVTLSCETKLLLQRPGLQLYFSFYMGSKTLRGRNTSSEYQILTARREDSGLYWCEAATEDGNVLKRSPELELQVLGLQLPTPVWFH
Assay [7] deals with human FcγRIIA_131H (CD32a) extracellular domain (human) (UniProt P12318). The assay is described as follows: SPR (Biacore), antibody captured on protein A, FcγR ECD as analyte, steady state, 25 °C. This is another data set of the same source.
human FcγRIIA_131H (CD32a) extracellular domain (human), sequence (P12318 34-217): as the sequence (P12318 34-217 H167R) above, with R134H counted along it
The target of assay [8] is human FcγRIIIA_158F (CD16a) extracellular domain (human) (UniProt P08637). The description is as above. The source holds these as a separate data set.
human FcγRIIIA_158F (CD16a) extracellular domain (human), sequence (P08637 17-208): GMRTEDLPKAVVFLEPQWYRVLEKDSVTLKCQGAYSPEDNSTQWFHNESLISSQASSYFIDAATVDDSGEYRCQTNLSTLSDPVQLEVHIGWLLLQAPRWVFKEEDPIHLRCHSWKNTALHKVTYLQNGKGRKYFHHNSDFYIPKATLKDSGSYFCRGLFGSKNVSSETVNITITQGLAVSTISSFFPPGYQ
Assay [9] has as its target human FcγRIIb (CD32b) extracellular domain (human) (UniProt P31994). Described as above. The source holds these as a separate data set.
The target in assay [10] is human FcγRIIA_131R (CD32a) extracellular domain (human) (UniProt P12318). Described as above. This is another data set of the same source.
The target of assay [11] is human FcγRIIIA_158V (CD16a) extracellular domain (human) (UniProt P08637). The assay is described as above.
human FcγRIIIA_158V (CD16a) extracellular domain (human), sequence (P08637 17-208 F176V): as the sequence (P08637 17-208) above, with F160V counted along it

human FcγRIIb (CD32b) extracellular domain (human), sequence (P31994 43-217): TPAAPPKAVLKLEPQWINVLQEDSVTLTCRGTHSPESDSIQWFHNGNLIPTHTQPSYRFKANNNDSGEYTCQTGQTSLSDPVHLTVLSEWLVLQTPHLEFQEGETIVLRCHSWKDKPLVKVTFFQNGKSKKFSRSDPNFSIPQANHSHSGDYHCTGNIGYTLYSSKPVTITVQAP

In the case of Hu IgG1 control (antibody), the pKd in assay [1] was 10.25; in [2] it was 6.17; in assay [3] it was 5.89; in assay [4], 5.51; in assay [5] it was 6.13; in [6], 10.28. Also, the pKd is 6.16 in assay [7], 6.04 in assay [8], 5.43 in [9] and 6.12 in assay [10].

In the case of Hu IgG4 SP control (antibody), the pKd in [2] was 5.27; in assay [11] it was 5.13; in assay [4], 5.56; in [5], 5.64; in assay [6] it was 9.38.

As a reminder, the pKd is the negative decadic logarithm of the Kd, by convention in mol/L. Low readings indicate a high Kd, high ones a low Kd.

The record behind these values is patent publication US20240100176A1, “HUMAN INTERLEUKIN-4 RECEPTOR ALPHA ANTIBODY GLUCOCORTICOID CONJUGATES” (Eli Lilly and Company, priority 2022, published 2024).
